According to PMC11014985, “TCTP regulates genotoxic stress and tumorigenicity via intercellular vesicular signaling” (EMBO Reports, 2024):

Target: DDX3-DQAD (human) (UniProt O00571)

B1: TCTP (translationally controlled tumor protein) (natural protein)
chain: MIIYRDLISHDEMFSDIYKIREIADGLCLEVEGKMVSRTEGNIDDSLIGGNASAEGPEGEGTESTVITGVDIVMNHHLQETSFTKEAYKKYIKDYMKSIKGKLEEQRPERVKPFMTGAAEQIKHILANFKNYQFFIGENMNPDGMVALLDYREDGVTPYMIFFKDGLEMEKC
increase of the let-7c-5p signal bound to DDX-DQAD on adding TCTP (500 nM TCTP, 300 nM DDX3-DQAD, 50 nM biotinylated let-7c-5p, non-denaturing gel), in the presence of AMP-PNP: 200% | increase of the let-7c-5p signal bound to DDX-DQAD on adding TCTP (500 nM TCTP, 300 nM DDX3-DQAD, 50 nM biotinylated let-7c-5p, non-denaturing gel), in the presence of ATP: 50%
